Results on 2 molecules are retold here after patent US20180222987A1 (Sanofi, published 2018).

In general, koff refers to the first-order rate constant of dissociation. Low readings indicate slow dissociation, high ones fast dissociation.

The target of assay [1] is T1, human CD123 (IL3RA) Strep-II tagged Fc-fusion protein (human).
T1 construct: also called human CD123-Fc
Put plainly: SPR Proteon XPR36, rat IgG captured, CD123-Fc analyte. On the procedure: Screening of anti-CD123 rat IgGs for binding affinities to human CD123 and cross-reactivities to cyno CD123 was performed with hybridoma supernatants using a Proteon XPR36 (Biorad) in a one-shot kinetics approach. A capture assay was established using a goat anti-rat IgG (112-005-071, Jackson Immuno Research). The capture antibody was coated on GLC chips (176-5011, Biorad) to approx. 8000 RU in the vertical direction using the amine coupling kit (176-2410, Biorad). […] Binding kinetics with human and cyno CD123-Fc fusion protein was measured at 100 μl/min in the horizontal direction with 120 sec. and 600 sec. for association and dissociation, respectively. The CD123-Fc proteins were used in twofold dilutions from 6 nM to 100 nM. PBSET buffer (176-2730, Biorad) was used as assay buffer. Regeneration was achieved by injection of 10 mM Glycine buffer pH 1.5 for 18 sec at 30 μl/min. Data processing and analysis was performed using ProteonManager software v3.0. Fitting of the sensorgrams was done with a 1:1 Langmuir model.

Assay [2] has as its target T2, human CD3ε/δ-Fc fusion heterodimer (hCD3ε/δ-hFc) (human, UniProt P04234 22-105).
T2 construct: also called CD3ed-Fc; human CD3ε/δ complex; not shown: hinge-CH2-CH3 of human IgG with tag
Put plainly: SPR single point, hybridoma supernatant. On the procedure: Rats with positive sera were scarified and B cells were fused with mouse myeloma cells. The resulting hybridomas were screened on HEK293 cells transfected with human or cynomolgus CD3ε and CD3δ expression plasmids, on Jurkat E6.1 (CD3+) and Jurkat T3.5 (CD3-) by flow cytometry. Supernatant of Hybridoma clones was used to assess by surface plasmon resonance single point kinetic against human and Macaca fascicularis CD3ε/δ complex by fixing the analyte at 25 nM (data presented in table 3).

T1 sequence (chain, as listed by the source limits assumed): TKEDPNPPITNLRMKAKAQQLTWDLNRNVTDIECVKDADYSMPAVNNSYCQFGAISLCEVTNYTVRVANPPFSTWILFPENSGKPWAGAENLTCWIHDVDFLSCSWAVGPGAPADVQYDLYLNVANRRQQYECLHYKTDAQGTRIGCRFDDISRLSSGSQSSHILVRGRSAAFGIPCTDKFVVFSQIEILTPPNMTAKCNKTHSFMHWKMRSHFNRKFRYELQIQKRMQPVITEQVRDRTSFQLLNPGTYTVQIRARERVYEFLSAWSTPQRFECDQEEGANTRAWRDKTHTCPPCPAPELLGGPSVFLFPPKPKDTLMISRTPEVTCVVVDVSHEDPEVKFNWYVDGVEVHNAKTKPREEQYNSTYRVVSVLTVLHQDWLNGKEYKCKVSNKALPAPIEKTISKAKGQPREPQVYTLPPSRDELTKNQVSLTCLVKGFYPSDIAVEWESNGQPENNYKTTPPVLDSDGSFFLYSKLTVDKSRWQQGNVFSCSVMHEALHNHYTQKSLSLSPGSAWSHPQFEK
T2 sequence (chain, as listed by the source mutant, chain 1 of 2): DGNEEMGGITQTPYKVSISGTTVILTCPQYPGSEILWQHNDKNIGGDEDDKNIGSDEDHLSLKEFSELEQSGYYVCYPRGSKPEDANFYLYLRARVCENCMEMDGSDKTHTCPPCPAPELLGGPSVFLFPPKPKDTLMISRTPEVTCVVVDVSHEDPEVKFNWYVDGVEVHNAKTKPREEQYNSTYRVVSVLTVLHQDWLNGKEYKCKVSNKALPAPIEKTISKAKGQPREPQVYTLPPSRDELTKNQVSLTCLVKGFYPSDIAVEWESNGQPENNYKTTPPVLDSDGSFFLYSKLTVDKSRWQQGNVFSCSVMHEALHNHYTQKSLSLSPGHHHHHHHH
T2 sequence (P04234 22-105, stated change not applied, chain 2 of 2): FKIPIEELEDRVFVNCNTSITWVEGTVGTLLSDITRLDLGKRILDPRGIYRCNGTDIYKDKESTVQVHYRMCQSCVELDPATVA

B1: 3B10-E6 anti-CD123 antibody (antibody, V domains shown)
VH: QVQLQQSGPELRRPGSSVRLSCKASGYRIKDFLIHWIKNRPEHGLEWIGWIDPEDGETKYAQKFQTKATLTADTSSNTAYMQLSSLTSEDTATYFCARWGDVYYGLMRGHVMDAWGQGTSVTVSS
VL: DVLMTQTPVSLPVSLGGQVSISCRSSQSLVHSDGDTYLHWYLQKPGQSPQLLIYRVSNRFSGVPDRFSGSGSGTDFTLKISRVEPEDLGLYYCLQTTHFPPWTFGGGTKLEMK
notes: rat IgG, hybridoma supernatant; also called BFX - 3B10
As to B1, the koff in assay [1] was about 5e-05 s⁻¹.

B2: 11H3-E5 anti-CD3 antibody (antibody, V domains shown)
VH: EVQLVETGGSLVQPGKSLKLTCATSGFTFSNAWMHWVRQSPEKQLEWVAQIKAKSNNYATYYAESVKGRFTISRDDSKSSVYLQMNSLKEEDTAIYYCRGTYYAYKPFDYWGQGVMVTVSS
VL: DVVMTQTPVSLSVSLGGQVSISCRSSQSLVHDNGNTYLSWSLQKPGQSPQVLIYKVSNRFSGTSDRFTGSGSGTDFTLKISRVEPDDLGVYYCGQGTQYPFTFGSGTKLEIK
notes: rat mAb, hybridoma supernatant
Regarding B2, the “RU at 25 nM” value in assay [2] came to 7 RU.
